Measurements reported in article PMC11488661 (Science immunology, 2024).
Positions count from the first letter of the chain named.

B1: g28v2-D38-10_CLK19 (antibody, V domains shown)
VH: QVQLVQSGAEVKKPGASVKVSCKASGYTFTGYYIHWVRQAPGQGLEWMGWINPNSGGTNYPQKFQGRVTMTRDTSISTAYMELSRLRSDDTAVYYCALWFGEKWTFDIWGQGTMVTVSS
VL: DIQMTQSPSSLSASVGDRVTITCQASQDIGNYLNWYHQRPGKAPKLLIYDASNLETGVPSRFSGSGSGPDSTFTISTLQPEDIGTYYCQQYDTFGPGTKVDIK
B2: g28v2-D46-14_CLK19 (antibody, V domains shown)
VH: B1 VH with Q1R, S55R, Y80S, W104K
VL: DIQLTQSPSSLSASVGGRVTITCQASQDIHNYLNWYQQKPGKAPKILIHDVSNLETGVPSRFSGSRSGTDFTFTISSLLPEDIGTYYCQQYEFFGPGTKVDIK
B3: g28-D78-7_CLK09 (antibody, V domains shown)
VH: QVQLVQSGAEVKKPGASVRVSCKASGYTFTGNYIHWVRQAPGQGLEWMGWLNPINGGTNHAQKFQGRVTMTRDTSINTAYMELSRLKSDDTTVYYCARVGGLWSGKGWTFDIWGQGTMVTVSS
VL: DIQMTQSPSSLSASVGDRVTITCQASQDISILNWYQQKPGKAPKLLIYGASNLETGVPSRFSGSGSGTDFTFTISSLQPEDIATYYCQQYEFFGGGTKVEIK
B4: g28-D78-9_CLK09 (antibody, V domains shown)
VH: B3 VH with N77S, K87R
VL: B3 VL
B5: g28v2-D38-1_CLK19 (antibody, V domains shown)
VH: QVQLVQSGAEVKKPGASVKVSCKASGYTFTGHHMHWVRQAPGQGLEWLGWINPRGGGTNYAQKFQGRVTMTRDTSISTAYMDLSRLRSDDTAVYYCTPVLATFRWRFDYWGQGTLVTVSS
VL: DIQMTQSPSSLSASVGDRVTFTCQASQDISNFLNWYQQKPGKAPKLLIYDTSNLEAGVPSRFSGGGSGTDFTFTISSLQPEDVATYYCQQYATFGPGTKVDIK
B6: g28v2-D46-1_CLK19 (antibody, V domains shown)
VH: QVQLVQSGAEVKKPGAAVKVSCKASGYTFTGYYIHWVRQAPGQGLEWMGWVNPKTGATNYAQKFQGRVTMTRDTSISTTYMELRRLRSDETAVYFCATVMADFRWPFDYWGQGTLVTVSS
VL: B5 VL with F21I, S30N, F32Y, E55G, A56I, G65S, V83I, A84G, A92D
B7: g28v2-D46-3_CLK19 (antibody, V domains shown)
VH: QVQLVQSGAEVKKPGAAVKVSCKASGYTFTDYYMHWVRQAPGQGLEWMGWINPRYGGTNYAQKFQDRVTMTRDTSISTTYMELRRLKSDETAVYYCTTVMADYRWPFDYWGQGTLVTVSS
VL: B5 VL with F21I, T22S, S30N, F32C, E55G, A56T, G65S, V83I, A84G, A92D
B8: g28v2-D38-2_CLK19 (antibody, V domains shown)
VH: QVQLVQSGAEVKKPGASVKVSCKASGYTFTDYYLHWVRQAPGQGLEWMGWINPIFGAPNYARKFQGRVTMTRDTSISTAYMELSRLNSDDTAVYYCTHVLATYRWRFDHWGQGTLVTVSS
VL: B5 VL with S30G, E55G, G65S, V83I
B9: g28v2-D38-9_CLK19 (antibody, V domains shown)
VH: B1 VH with G31V, I34M, W104K
VL: B1 VL with H37Q, R39K, A51T, S65G, S71F
B10: g28v2-D46-2_CLK19 (antibody, V domains shown)
VH: QVQLLQSGDEVKKPGASVRVSCKASGYTFTAYFLHWVRQAPGQGLEWMGWINPHSGGTNYAQRFQDRVTMTRDTSISTAYMELSRLRSDDTAVYYCTPVLADYRWRFAYWGQGTLVTVSS
VL: B5 VL with F21I, S30N, F32Y, S52T, A56I, G65S, V83F, T93A
B11: g28-D78-5_CLK09 (antibody, V domains shown)
VH: QLQLVQSGAEVKKPGASVKVSCKASGYTFTGYFIHWVRQAPGQGLEWMGWLNPIYGGVNYARNFQDRVTMTRDTSISTAYLELRRLKSDDTAVYYCARVAERMIFDVWGQGTMVTVSS
VL: DIQMTQSPSSLSASVGDRVTIACQASQDISNYVNWYQQKPGKAPKLLIYDASNLETGVPSRFSGSGSGTDFTFTISSLQPEDIATYYCQQYEFFGGGTKVEIK
B12: g28v2-D38-7_CLK19 (antibody, V domains shown)
VH: QVQLVQSGAEVKKPGASVKVSCKASGYTFTGYYMHWVRQAPGQGPEWMGWLNPNNGGTNFARKYQDRVTMTRDTSLSSAYMELSRLRSDDTAVYYCARVGEKWTFDFWGQGTMVTVSS
VL: B5 VL with F21I, S30N, F32Y, G65S, V83I, Y87F, T93A
B13: g28v2-D46-5_CLK19 (antibody, V domains shown)
VH: B10 VH with F33Y, I51L, N52Y, H54Q, D66G, Y80F, T97A
VL: B5 VL with F21I, S30N, F32Y, S52T, A56I, G65S, V83I, T93A
B14: g28v2-D46-6_CLK09 (antibody, V domains shown)
VH: B12 VH with G31D, T58R, Y64F, M70V, S78T, F107I
VL: B11 VL with D17G, A22T, V33L, A51V
B15: g28v2-D38-3_CLK19 (antibody, V domains shown)
VH: B5 VH with H32Y, H33F, L48M, R54H, G55F, G57A, D82E, T91W
VL: B5 VL with F21I, T22S, S30N, F32Y, A56T, G65S, V83I, A92D
B16: g28v2-D46-7_CLK09 (antibody, V domains shown)
VH: B5 VH with H32Y, L45P, L48M, R54N, D82E, Y94F, T97A, T102D, F103Y, R104G
VL: B11 VL with D17G, A22T, N31S, V33L, T56A, T72A
B17: g28v2-D46-13_CLK19 (antibody, V domains shown)
VH: QVQLVQSGAEVKKPGASVKVSCKASGYTFTGNYMHWVRQAPGQGLEWMGWINPNSGGTNYAQKFQGRVTMTRDTSISTAHMELRSLRSDDTAVYYCARVEGSWFGKKWTFDIWGQGTMVTVSS
VL: B5 VL with D1A, F21I, S30T, F32Y, T51A, G65S, S77G, V83I, Y87S, A92E
B18: g28v2-D38-5_CLK19 (antibody, V domains shown)
VH: QVQLVQSGAEVKKPGASVKVSCKASGYTFIDYYIHWVRQAPGQGLEWMGWINPYHGGTNCAQKFQDRVTMTRDTSISTAYLEMSRLRSDDTAVFFCVIALAGHGWRFDYWGQGTQVTVSS
VL: B5 VL with F21I, S30N, F32Y, A56T, G65S, V83I, T93A
B19: g28v2-D38-11_CLK19 (antibody, V domains shown)
VH: QVQLVQSGAEVKKPGASVKVSCKASGYTFTGYYMHWVRQAPGQGLEWMGWINPNSGGTNYAQIFQDRVTMTRDTSISTAYLELSRLRSDDTAVYYCTRVDGVWSFDIWGQGTMVTVSS
VL: B11 VL with D1N, A22T, V33L, L46I, E92D, F93T, G96P, E101D
B20: g28v2-D46-11_CLK19 (antibody, V domains shown)
VH: QVQLVQSGAEVKKPGASVRVSCKASGYTFTDYYMHWVRQAPGQGLEWMGWINPHSGGVNYAHKFQGRVTMTRDTSISTAYMELSRLRSDDTAVYYCTTALAGHGWRFDYWGQGTLVTVSS
VL: B11 VL with A22T, I29T, V33L, Q38L, S77G, F93T, G96P, E101D
B21: g28v2-D38-4_CLK09 (antibody, V domains shown)
VH: QVQLVQSGAEVKKPGASVKVSCKASGYTFTDYFLHWVRQAPGQGLEWMGWINPTGGGVNYAQQFQGRVTLTRDTSISTAYMELTRLRSDDTAVYYCTPVLATFRWRFDYWGQGTLVTVSS
VL: B11 VL with A22T, V33L, A51V, E55G
B22: g28-D78-8_CLK09 (antibody, V domains shown)
VH: B11 VH with G26R
VL: B11 VL with E101R
B23: g28v2-D46-10_CLK19 (antibody, V domains shown)
VH: B20 VH with K13R, D31G, H54N, S55R, E82D, Y94F
VL: B11 VL with D1N, A22T, I29T, V33L, S77G, F93T, G96P, E101D
B24: g28v2-D38-6_CLK19 (antibody, V domains shown)
VH: QVQLVQSGAEVREPGASVKVSCKASGYTFTGYYMHWVRQAPGQGLEWMGWINPNRGGTNLARKLQDRVTMTRDTSLSTAYMELRRLRTDDTAVYYCARVGEKWTFDIWGQGTMVTVSS
VL: B5 VL with I2L, F21I, S30N, F32Y, K42R, A56T, G65S, V83I, T93A
B25: g28v2-D46-12_CLK19 (antibody, V domains shown)
VH: QVQLVQSGAEVKKPGASVKVSCKASGYTFTGYFMHWVRQAPGQGLEWMGWINPNTGGVNYSQKFQGRVTMTRDTSITTAYMELSSLRSDDTAVYFCVTALAGHGWRFDYWGQGTLVTVSS
VL: B11 VL with A22T, I29T, V33L, S77G, F93T, G96P, E101D
B26: g28v2-D38-8_CLK19 (antibody, V domains shown)
VH: QVQLVQSGAEVKKPGASVKVSCKASGYSFSGYYMHWVRQAPGQGLEWMGWINPNHGGTNYAQKFQDRVTMTRDTSISTAYMELSRLRSDDTAVYFCARVDESWFGKKWTFDIWGQGTMVTVSS
VL: B5 VL with F21I, S30G, F32Y, A56T, G65S, T72S, S76A, V83I, A92D, T93I
B27: g28v2-D46-4_CLK19 (antibody, V domains shown)
VH: B7 VH with M34I, R54T
VL: B1 VL with T22S, G30N, H37Q, R39K, A51T, E55G, P69T, S71F, T77S
B28: g28-D78-6_CLK09 (antibody, V domains shown)
VH: B11 VH with E10D
VL: B11 VL with A22V, S30N, G66R
B29: g28v2-D46-8_CLK09 (antibody, V domains shown)
VH: B20 VH with H54N, S55N, V58I
VL: B11 VL with D17G, A22T, D28G, N31T, V33L, A51V, I83F

target: eOD-GT8 (monomeric ligand) (Human immunodeficiency virus 1, …)

Binder	Kd [nM]
B1	0.0433
B2	12
B3	0.2
B4	0.19
B5	6.29
B6	10.8
B7	0.338
B8	3710
B9	0.149
B10	0.344
B11	6
B12	0.0876
B13	19.7
B14	0.211
B15	105
B16	57.3
B17	0.193
B18	4.43
B19	0.0422
B20	0.0455
B21	0.177
B22	8
B23	1.35
B24	5.38
B25	0.183
B26	50.8
B27	0.106
B28	7.6
B29	0.303
